From paper PMC4389572

Biological target: C3G-based poly-Pro peptide ligand
Test: other fluorescence titration; fluorescence-based titration assay as described in Camarero et al., 2001b; conditions not given here

Kd [nM]	Binder
430	SH3_(circ-Δ), backbone-cyclized N-terminal SH3 domain of c-Crk lacking Ala134 and Glu135 (Cys + residues 136-191) (domain or fragment, backbone cyclized: cyclo-[...], peptide bond between the N-terminal Cys and the C-terminal Gly191) CYVRALFDFNGNDEEDLPFKKGDILRIRDKPEEQWWNAEDSEGKRGMIPVPYVEKYG
890	SH3_(circ-wt), backbone-cyclized N-terminal SH3 domain of c-Crk (Cys-Gly + residues 134-191) (domain or fragment, backbone cyclized: cyclo-[...], peptide bond between the N-terminal Cys and the C-terminal Gly191) CGAEYVRALFDFNGNDEEDLPFKKGDILRIRDKPEEQWWNAEDSEGKRGMIPVPYVEKYG
870	SH3_(lin-wt), linear N-terminal SH3 domain of c-Crk (residues 134-190 with an additional Gly191) (domain or fragment) AEYVRALFDFNGNDEEDLPFKKGDILRIRDKPEEQWWNAEDSEGKRGMIPVPYVEKYG
470	SH3_(circ-GΔ), backbone-cyclized N-terminal SH3 domain of c-Crk lacking Ala134 and Glu135 (Cys-Gly + residues 136-191) (domain or fragment, backbone cyclized: cyclo-[...], peptide bond between the N-terminal Cys and the C-terminal Gly191) CGYVRALFDFNGNDEEDLPFKKGDILRIRDKPEEQWWNAEDSEGKRGMIPVPYVEKYG
